This passage reports Kd results from PMC4915676, “Dissociation Dynamics of XPC-RAD23B from Damaged DNA Is a Determining Factor of NER Efficiency”.

Data set [1] deals with T1, XPC-RAD23B (Homo sapiens, UniProt Q01831;P54727 1-940;1-409). As to the kind of experiment: SPR; 5 mM Mg2+; SPR: HBS-P+ (10 mM HEPES, 150 mM NaCl, 0.05% P20), 5 mM MgCl2, 1 mM DTT, 100 ug/mL BSA (+0.5 mM ATP for UvrA), pH and temperature not stated; EMSA: 20 mM Hepes-KOH pH 7.9, 75 mM KCl, 5 mM MgCl2, 1 mM DTT, 5% glycerol, 100 ug/mL BSA, 30 C. To be noted: protein: recombinant; copies: 1;1; label: 5'-biotin on strand 1; blunt.

Another data set concerns the target T2, UvrA (UniProt P0A698 1-940).
T2 sequence: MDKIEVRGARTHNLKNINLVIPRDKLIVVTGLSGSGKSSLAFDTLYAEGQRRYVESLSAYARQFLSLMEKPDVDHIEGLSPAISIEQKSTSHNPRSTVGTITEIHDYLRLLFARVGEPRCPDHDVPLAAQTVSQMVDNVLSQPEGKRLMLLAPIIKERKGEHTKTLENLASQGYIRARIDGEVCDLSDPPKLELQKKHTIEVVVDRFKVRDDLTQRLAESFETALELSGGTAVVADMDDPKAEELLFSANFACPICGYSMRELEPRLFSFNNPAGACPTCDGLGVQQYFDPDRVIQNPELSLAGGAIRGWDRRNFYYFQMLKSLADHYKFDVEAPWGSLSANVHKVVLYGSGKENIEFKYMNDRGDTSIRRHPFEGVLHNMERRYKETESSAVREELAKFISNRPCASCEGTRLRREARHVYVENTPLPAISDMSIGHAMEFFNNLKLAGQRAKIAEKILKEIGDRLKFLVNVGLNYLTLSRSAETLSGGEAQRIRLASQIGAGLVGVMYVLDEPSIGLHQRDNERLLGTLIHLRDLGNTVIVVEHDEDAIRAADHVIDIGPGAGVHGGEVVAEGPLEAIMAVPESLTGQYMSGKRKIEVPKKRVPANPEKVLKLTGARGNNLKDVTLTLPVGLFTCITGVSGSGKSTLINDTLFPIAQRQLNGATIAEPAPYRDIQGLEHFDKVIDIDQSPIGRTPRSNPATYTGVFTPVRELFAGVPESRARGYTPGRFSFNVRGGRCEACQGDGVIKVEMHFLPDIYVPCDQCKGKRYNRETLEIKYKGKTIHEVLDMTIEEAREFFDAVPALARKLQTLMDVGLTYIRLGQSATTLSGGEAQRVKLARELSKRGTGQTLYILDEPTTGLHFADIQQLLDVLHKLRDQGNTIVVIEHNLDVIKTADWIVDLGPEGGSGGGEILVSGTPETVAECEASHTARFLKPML
As to the kind of experiment: SPR; 0.5 mM ATP, 5 mM Mg2+; SPR: HBS-P+ (10 mM HEPES, 150 mM NaCl, 0.05% P20), 5 mM MgCl2, 1 mM DTT, 100 ug/mL BSA (+0.5 mM ATP for UvrA), pH and temperature not stated; EMSA: 20 mM Hepes-KOH pH 7.9, 75 mM KCl, 5 mM MgCl2, 1 mM DTT, 5% glycerol, 100 ug/mL BSA, 30 C. The conditions noted are these: protein: recombinant; chain copies: 2; label: 5'-biotin on strand 1; blunt.

The target in data set [2] is T1, XPC-RAD23B. Briefly: SPR; 5 mM Mg2+; error as printed is 0.01e-9; SPR: HBS-P+ (10 mM HEPES, 150 mM NaCl, 0.05% P20), 5 mM MgCl2, 1 mM DTT, 100 ug/mL BSA (+0.5 mM ATP for UvrA), pH and temperature not stated; EMSA: 20 mM Hepes-KOH pH 7.9, 75 mM KCl, 5 mM MgCl2, 1 mM DTT, 5% glycerol, 100 ug/mL BSA, 30 C. To be noted: protein: recombinant; copies: 1;1; label: 5'-biotin on strand 1; blunt.

T1 sequence (Q01831 whole entry, chain 1 of 2): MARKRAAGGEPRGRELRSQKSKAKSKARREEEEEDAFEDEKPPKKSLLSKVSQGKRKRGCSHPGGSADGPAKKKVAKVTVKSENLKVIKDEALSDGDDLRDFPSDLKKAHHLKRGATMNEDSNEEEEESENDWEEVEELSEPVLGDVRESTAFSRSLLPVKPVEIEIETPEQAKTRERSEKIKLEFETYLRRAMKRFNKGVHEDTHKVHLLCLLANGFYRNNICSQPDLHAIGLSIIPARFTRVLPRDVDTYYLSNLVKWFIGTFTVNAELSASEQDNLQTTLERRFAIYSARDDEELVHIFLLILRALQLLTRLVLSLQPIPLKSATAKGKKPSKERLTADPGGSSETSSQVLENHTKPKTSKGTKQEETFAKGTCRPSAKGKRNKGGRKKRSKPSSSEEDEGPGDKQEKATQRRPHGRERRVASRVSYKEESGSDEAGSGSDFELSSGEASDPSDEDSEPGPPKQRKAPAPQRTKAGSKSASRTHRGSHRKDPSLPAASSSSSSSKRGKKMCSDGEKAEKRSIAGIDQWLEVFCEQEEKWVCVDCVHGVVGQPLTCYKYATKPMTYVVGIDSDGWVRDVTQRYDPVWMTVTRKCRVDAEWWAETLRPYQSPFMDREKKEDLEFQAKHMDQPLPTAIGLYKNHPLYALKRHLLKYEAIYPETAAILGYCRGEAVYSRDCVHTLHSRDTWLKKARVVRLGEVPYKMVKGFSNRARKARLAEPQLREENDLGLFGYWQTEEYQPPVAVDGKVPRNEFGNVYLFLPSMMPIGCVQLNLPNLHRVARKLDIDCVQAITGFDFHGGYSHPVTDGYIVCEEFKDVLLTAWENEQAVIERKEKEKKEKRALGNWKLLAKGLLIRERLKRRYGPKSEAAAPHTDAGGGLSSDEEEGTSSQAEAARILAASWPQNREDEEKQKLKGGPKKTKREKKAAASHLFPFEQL
T1 sequence (P54727 whole entry, chain 2 of 2): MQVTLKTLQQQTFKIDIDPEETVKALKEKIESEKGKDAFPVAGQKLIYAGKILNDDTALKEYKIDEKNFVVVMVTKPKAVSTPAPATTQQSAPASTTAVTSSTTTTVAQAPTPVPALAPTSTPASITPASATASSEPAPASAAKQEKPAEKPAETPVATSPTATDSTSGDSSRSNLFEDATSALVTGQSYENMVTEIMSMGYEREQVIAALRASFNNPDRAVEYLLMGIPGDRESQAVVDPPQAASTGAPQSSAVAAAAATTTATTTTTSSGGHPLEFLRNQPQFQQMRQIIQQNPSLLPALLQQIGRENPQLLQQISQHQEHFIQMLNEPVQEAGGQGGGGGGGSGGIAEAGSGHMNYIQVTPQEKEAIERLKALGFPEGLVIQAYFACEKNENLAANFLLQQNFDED

B1: NarI-G1 mono-FAAF 55-mer (dsDNA)
DNA 1: CCACTCCTATCCACCATCCATCTTACTCTCGGCGCCATCACCACTCACCACCACA
DNA 2: TGTGGTGGTGAGTGGTGATGGCGCCGAGAGTAAGATGGATGGTGGATAGGAGTGG
modifications: dG-FAAF at G31 (G1) of strand 1
Turning to B1, the equilibrium dissociation constant (Kd) is 1.8 nM with XPC-RAD23B [1] and 1.3 nM with UvrA.

B2: NarI-G1G2 di-FAAF 55-mer (dsDNA)
DNA 1: CCACTCCTATCCACCATCCATCTTACTCTCGGCGCCATCACCACTCACCACCACA
DNA 2: TGTGGTGGTGAGTGGTGATGGCGCCGAGAGTAAGATGGATGGTGGATAGGAGTGG
modifications: dG-FAAF at G31 and G32 (G1, G2) of strand 1
In the case of B2, the dissociation constant (Kd) with XPC-RAD23B [1] worked out at 0.076 nM; with UvrA, 0.49 nM.

B3: NarI-G2 mono-FAAF 55-mer (dsDNA)
DNA 1: CCACTCCTATCCACCATCCATCTTACTCTCGGCGCCATCACCACTCACCACCACA
DNA 2: TGTGGTGGTGAGTGGTGATGGCGCCGAGAGTAAGATGGATGGTGGATAGGAGTGG
modifications: dG-FAAF at G32 (G2) of strand 1
As for B3, the Kd in the data set with XPC-RAD23B [1] is 0.9 nM; with UvrA, 2.4 nM.

B4: NarI-G1G3 di-FAAF 55-mer (dsDNA)
DNA 1: CCACTCCTATCCACCATCCATCTTACTCTCGGCGCCATCACCACTCACCACCACA
DNA 2: TGTGGTGGTGAGTGGTGATGGCGCCGAGAGTAAGATGGATGGTGGATAGGAGTGG
modifications: dG-FAAF at G31 and G34 (G1, G3) of strand 1
With B4, the values for the dissociation constant (Kd) with XPC-RAD23B [1] and with UvrA were 0.016 nM and 0.27 nM, respectively.

B5: NarI-G3 mono-FAAF 55-mer (dsDNA)
DNA 1: CCACTCCTATCCACCATCCATCTTACTCTCGGCGCCATCACCACTCACCACCACA
DNA 2: TGTGGTGGTGAGTGGTGATGGCGCCGAGAGTAAGATGGATGGTGGATAGGAGTGG
modifications: dG-FAAF at G34 (G3) of strand 1
Regarding B5, the figures for the equilibrium dissociation constant (Kd) with UvrA and with XPC-RAD23B [2] were 3.9 nM and 1.1 nM, respectively.

B6: NarI-G2G3 di-FAAF 55-mer (dsDNA)
DNA 1: CCACTCCTATCCACCATCCATCTTACTCTCGGCGCCATCACCACTCACCACCACA
DNA 2: TGTGGTGGTGAGTGGTGATGGCGCCGAGAGTAAGATGGATGGTGGATAGGAGTGG
modifications: dG-FAAF at G32 and G34 (G2, G3) of strand 1
B6: the values for the dissociation constant (Kd) with XPC-RAD23B [1] and with UvrA were 0.0042 nM and 0.5 nM, respectively.
